Measured values as given in patent US20230119539A1, “TRACELESS LINKERS AND PROTEIN-CONJUGATES THEREOF” (Regeneron Pharmaceuticals, Inc., priority 2019, published 2023).
Like-named read-outs stand apart in the source and are kept apart here.

Key:
[1] = Solubility of quenched linker-payloads; conditions: Table 3c, linker-payloads quenched with taurine-PEG4-azide or CD-N3
[2] = molecular target: T1, human macrophage scavenger receptor 1 (MSR1) (human, UniProt P21757 1-451); assay: cell-based or functional assay
T1 sequence (looked up): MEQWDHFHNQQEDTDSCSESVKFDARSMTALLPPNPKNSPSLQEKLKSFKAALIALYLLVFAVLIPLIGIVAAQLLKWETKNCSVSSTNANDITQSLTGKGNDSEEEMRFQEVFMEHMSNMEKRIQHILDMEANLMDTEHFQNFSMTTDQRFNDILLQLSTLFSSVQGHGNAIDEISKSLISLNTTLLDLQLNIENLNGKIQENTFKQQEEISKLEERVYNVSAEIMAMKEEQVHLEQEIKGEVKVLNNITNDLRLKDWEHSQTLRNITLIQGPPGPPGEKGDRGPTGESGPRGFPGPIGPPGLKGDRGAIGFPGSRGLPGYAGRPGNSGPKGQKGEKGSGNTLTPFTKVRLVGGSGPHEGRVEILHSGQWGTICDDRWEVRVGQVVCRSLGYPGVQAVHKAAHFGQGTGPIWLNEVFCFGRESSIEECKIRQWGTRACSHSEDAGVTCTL

[3] = molecular target: T1, human macrophage scavenger receptor 1 …; assay: cell-based or functional assay; remark: listed apart in the source
GR = molecular target: T2, GR (Homo sapiens, UniProt P04150); assay: GR luciferase reporter assay in HEK293/GRLuc cells; type: cell-based
T2 construct: host or cells: HEK293 (HEK293/GRLuc; HEK293/GRLuc/MSR1 additionally transduced with human MSR1)
T2 sequence (P04150 524-758 limits assumed): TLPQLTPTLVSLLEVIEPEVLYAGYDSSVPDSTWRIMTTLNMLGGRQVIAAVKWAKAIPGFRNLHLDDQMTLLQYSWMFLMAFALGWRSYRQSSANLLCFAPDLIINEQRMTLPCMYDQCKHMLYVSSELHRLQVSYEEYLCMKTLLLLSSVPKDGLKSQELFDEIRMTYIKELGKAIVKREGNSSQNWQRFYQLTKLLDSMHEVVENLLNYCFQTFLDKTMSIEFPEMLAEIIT
Experimental: Activity of anti-MSR1 ncADCs were tested using an MSR1 ADC steroid responsive luciferase reporter assay. To generate the assay cell line, HEK293 cells were co-transfected with the pBind-GR (Promega, Cat #E158A) and pGL4.35 [Luc2P/9xGAL4UAS/Hygro] (Promega, Cat #E137A) vectors. The pBind-GR vector expresses a fusion protein consisting of the GR ligand binding and the yeast Gal4DNA-binding domain, which binds to the Gal4 upstream activation sequence (UAS) in the luciferase expression vector, that can induce luciferase expression following GR agonist binding. The cells were selected for at least 2 weeks in G418+hygromycin and the resulting cell line is referred to as HEK293/GRLuc. HEK293/GRLuc cells were then transduced with a human MSR1 lentiviral expression vector and 48 hours later cells were sorted for MSR1 positive cells. The resulting cell line is referred to as HEK293/GRLuc/MSR1.
Three-fold serial dilutions of ncADCs in assay buffer were added to the cells for 48 hours. The last well in the plate served as blank control containing only the assay media and was plotted as a continuation of the 3-fold serial dilution. Luciferase activity was determined using the One-Glo™ reagent (Promega, Cat #E6130). Relative light units (RLUs) were measured on an Envision luminometer (PerkinElmer) and EC50 values were determined using a four-parameter logistic equation over a 10-point dose response curve (GraphPad Prism). The signal to noise (S/N) was determined by taking the ratio of the highest RLU on the dose response curve to the RLU in the untreated wells.
To test the activity of GR agonist payloads disclosed herein, a cell-based GR responsive luciferase reporter assay was developed as described above.
Three-fold serial dilutions of free payloads were prepared in 100% DMSO, transferred to fresh assay media, and added to the cells for 48 hours. […] The last well in the plate served as blank control containing only the assay media and 0.2% DMSO (untreated well) and was plotted as a continuation of the 3-fold serial dilution. Luciferase activity was determined using the One-Glo™ reagent (Promega, Cat #E6130). Relative light units (RLUs) were measured on an Envision luminometer (PerkinElmer) and EC50 values were determined using a four-parameter logistic equation over a 10-point dose response curve (GraphPad Prism). The signal to noise (S/N) was determined by taking the ratio of the highest RLU on the dose response curve to the RLU in the untreated wells.

[4] = Table 8, ncADCs, highest RLU / RLU of untreated wells

Molecule	Solubility [1] [µg/mL]	EC50, GR luciferase reporter activity in HEK293/GRLuc/MSR1 cells [2] [nM]	S/N (highest RLU / RLU in untreated wells), HEK293/GRLuc/MSR1 cells [2]	EC50, GR luciferase reporter activity in HEK293/GRLuc/MSR1 cells [3] [nM]	S/N, HEK293/GRLuc/MSR1 cells [3]	EC50 (GR; Table 8, ncADCs, 48 hours) [nM]	S/N (GR; [4])	EC50 (GR; Table 11, ADCs) [nM]	S/N (GR; Table 11, ADCs)
CCCC1O[C@@H]2C[C@H]3[C@@H]4C[C@H](F)C5=CC(=O)C=C[C@]5(C)[C@@]4(F)[C@@H](O)C[C@]3(C)[C@]2(C(=O)COCNC(=O)CNC(=O)CNC(=O)OCc2ccc(NC(=O)[C@H](CCCNC(N)=O)NC(=O)[C@@H](NC(=O)CCOCCOCCOCCOCCNC(=O)CCC(=O)N3Cc4ccccc4-c4c(nnn4CCOCCOCCOCCOCCC(=O)NCCS(=O)(=O)O)-c4ccccc43)C(C)C)cc2)O1 (stereo partly shown) [Q1L1-PIII-4]	>1000								
H1H21234N-N297Q-L1-PII-1 (antibody, V domains shown, heavy-chain constant region (not part of this entry): N297Q (EU); linker-payload L1-PII-1 (DIBAC-suc-PEG4-vcPAB-PII-1, payload budesonide) clicked onto azido-PEG3-amine on glutamines; DAR 4) VH: QVQLQESGPGLVKPSETLSLTCTVTGGSISRNYWSWIRQPPGKGLEWIGYIYYSGSIDYNPSLKSRVTISVDTSKNQFSLKLSSMTAADTAVYYCARDRWNWKYGMDVWGQGTTVIVSS VL: EIVLTQSPGTLSLSPGERATLSCRASQTVRNNYLAWYHQKPGQAPRLLIYGASSRATGIPDRFSGSGSGTDFTLTISRLEPEDFTVYYCHQYGNSPWTFGQGTKMEIKR		0.609	128	0.84	222	> 100	5.4	> 100	4.5
H1H21234N-N297Q-L14-PII-1 (antibody, V domains shown, heavy-chain constant region (not part of this entry): N297Q (EU); linker-payload L14-PII-1 (DIBAC-GGFG-NHCH2-Bud) conjugated as in Example 5; four DAR ADC) VH: QVQLQESGPGLVKPSETLSLTCTVTGGSISRNYWSWIRQPPGKGLEWIGYIYYSGSIDYNPSLKSRVTISVDTSKNQFSLKLSSMTAADTAVYYCARDRWNWKYGMDVWGQGTTVIVSS VL: EIVLTQSPGTLSLSPGERATLSCRASQTVRNNYLAWYHQKPGQAPRLLIYGASSRATGIPDRFSGSGSGTDFTLTISRLEPEDFTVYYCHQYGNSPWTFGQGTKMEIKR				0.636	120			> 100	16.8
H1H21234N-N297Q-L8-PII-1 (antibody, V domains shown, heavy-chain constant region (not part of this entry): N297Q (EU); linker-payload L8-PII-1 (COT-PEG4-EvcPAB-G-NHCH2-Bud) conjugated as in Example 5; four DAR ADC) VH: QVQLQESGPGLVKPSETLSLTCTVTGGSISRNYWSWIRQPPGKGLEWIGYIYYSGSIDYNPSLKSRVTISVDTSKNQFSLKLSSMTAADTAVYYCARDRWNWKYGMDVWGQGTTVIVSS VL: EIVLTQSPGTLSLSPGERATLSCRASQTVRNNYLAWYHQKPGQAPRLLIYGASSRATGIPDRFSGSGSGTDFTLTISRLEPEDFTVYYCHQYGNSPWTFGQGTKMEIKR				0.899	280			> 100	1.4
H1H21234N-N297Q-L2-PIII-1 (antibody, V domains shown, heavy-chain constant region (not part of this entry): N297Q (EU); linker-payload L2-PIII-1 (DIBAC-suc-PEG4-Glu-vcPAB-PIII-1) clicked onto azido-PEG3-amine on glutamines; DAR 4) VH: QVQLQESGPGLVKPSETLSLTCTVTGGSISRNYWSWIRQPPGKGLEWIGYIYYSGSIDYNPSLKSRVTISVDTSKNQFSLKLSSMTAADTAVYYCARDRWNWKYGMDVWGQGTTVIVSS VL: EIVLTQSPGTLSLSPGERATLSCRASQTVRNNYLAWYHQKPGQAPRLLIYGASSRATGIPDRFSGSGSGTDFTLTISRLEPEDFTVYYCHQYGNSPWTFGQGTKMEIKR		0.184	96.4			52.7	6.0		
H1H21234N-N297Q-L5-PIII-1 (antibody, V domains shown, heavy-chain constant region (not part of this entry): N297Q (EU); linker-payload L5-PIII-1 (DIBAC-suc-SGGG-PIII-1) clicked onto azido-PEG3-amine on glutamines; DAR 4) VH: QVQLQESGPGLVKPSETLSLTCTVTGGSISRNYWSWIRQPPGKGLEWIGYIYYSGSIDYNPSLKSRVTISVDTSKNQFSLKLSSMTAADTAVYYCARDRWNWKYGMDVWGQGTTVIVSS VL: EIVLTQSPGTLSLSPGERATLSCRASQTVRNNYLAWYHQKPGQAPRLLIYGASSRATGIPDRFSGSGSGTDFTLTISRLEPEDFTVYYCHQYGNSPWTFGQGTKMEIKR		0.138	125			41.7	13.2		
H1H21234N-N297Q-L6-PII-9 (antibody, V domains shown, heavy-chain constant region (not part of this entry): N297Q (EU); linker-payload L6-PII-9 (DIBAC-suc-PEG4-PII-9, payload budesonide) conjugated as in Example 5; four DAR ADC) VH: QVQLQESGPGLVKPSETLSLTCTVTGGSISRNYWSWIRQPPGKGLEWIGYIYYSGSIDYNPSLKSRVTISVDTSKNQFSLKLSSMTAADTAVYYCARDRWNWKYGMDVWGQGTTVIVSS VL: EIVLTQSPGTLSLSPGERATLSCRASQTVRNNYLAWYHQKPGQAPRLLIYGASSRATGIPDRFSGSGSGTDFTLTISRLEPEDFTVYYCHQYGNSPWTFGQGTKMEIKR				3.96	150			> 100	15.8
H1H21234N-N297Q-L13-PII-1 (antibody, V domains shown, heavy-chain constant region (not part of this entry): N297Q (EU); linker-payload L13-PII-1 (COT-GGGG-NHCH2-Bud) conjugated as in Example 5; four DAR ADC) VH: QVQLQESGPGLVKPSETLSLTCTVTGGSISRNYWSWIRQPPGKGLEWIGYIYYSGSIDYNPSLKSRVTISVDTSKNQFSLKLSSMTAADTAVYYCARDRWNWKYGMDVWGQGTTVIVSS VL: EIVLTQSPGTLSLSPGERATLSCRASQTVRNNYLAWYHQKPGQAPRLLIYGASSRATGIPDRFSGSGSGTDFTLTISRLEPEDFTVYYCHQYGNSPWTFGQGTKMEIKR				2.33	226			> 100	3.1
H1H21234N-N297Q-L4-PIII-1 (antibody, V domains shown, heavy-chain constant region (not part of this entry): N297Q (EU); linker-payload L4-PIII-1 (DIBAC-suc-GGF-PIII-1) clicked onto azido-PEG3-amine on glutamines; DAR 4) VH: QVQLQESGPGLVKPSETLSLTCTVTGGSISRNYWSWIRQPPGKGLEWIGYIYYSGSIDYNPSLKSRVTISVDTSKNQFSLKLSSMTAADTAVYYCARDRWNWKYGMDVWGQGTTVIVSS VL: EIVLTQSPGTLSLSPGERATLSCRASQTVRNNYLAWYHQKPGQAPRLLIYGASSRATGIPDRFSGSGSGTDFTLTISRLEPEDFTVYYCHQYGNSPWTFGQGTKMEIKR		0.117	148			51.4	25.5		
